The text below walks through data of patent publication US20250059285A1 (ARGENX, published 2025).

The target of test [1] is T1, human Gal10-His (human, UniProt Q05315 2-142, limits assumed).
T1 construct: also called hGal10-His; human Gal10-His tagged; not shown: His tag
T1 sequence: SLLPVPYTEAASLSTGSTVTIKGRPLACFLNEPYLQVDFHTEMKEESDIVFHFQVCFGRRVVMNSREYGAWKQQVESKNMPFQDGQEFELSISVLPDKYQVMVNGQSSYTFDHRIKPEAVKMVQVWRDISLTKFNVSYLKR
The test is described as follows: SPR, summary table, human Gal10.

Test [2] has as its target T2, cynomolgus Gal10-His (WGS isoform) (cynomolgus).
T2 construct: also called cynomolgus antigen
Put plainly: SPR, summary table, cynomolgus_WGS Gal10. In general terms: Surface plasmon resonance follows binding to a sensor surface in real time, without labels.

Test [3] deals with T1, human Gal10-His. Put plainly: SPR against T0 reference; sample 4 weeks at 37 C. The method, then: The functional active concentration of the candidates was then assessed by SPR on a Biacore 3000 instrument (FIG. 4). All samples were evaluated with methods meeting the standard qualification criteria. Aliquots were tested at predefined test concentrations against titration curves from reference samples (T0, −80° C. storage) and in the presence of quality control (QC) samples covering a range of 70-130% relative activity (% RA) towards the reference material.
comparison/reference ⁽¹⁾ samples correspond to aliquots kept at +37° C. for 4 weeks ⁽²⁾ samples correspond to aliquots kept at +5° C. for 4 weeks prior to nebulization. In brief, samples were nebulized with an Aerogen Solo active vibrating mesh nebulizer that converted a drug solution into an inhalable aerosol. Three different devices for each time-point were used per clone and results are reported by the device (nebulizer) serial number. In case of device fouling, indicated by longer nebulization times […]

In test [4] the target is T1, human Gal10-His. The test is described as follows: SPR slope against calibrators on captured Gal10-His; T0 sample.
The target in test [5] is T1, human Gal10-His. Put plainly: SPR Biacore 3000, Fab periplasmic extract on Gal10-His-coated CM5. Here is the method:
The binding properties of the Fabs (periplasmic extract) to human Gal10-His were analyzed by SPR with a Biacore 3000 instrument. For this purpose, the diluted periplasmic extract was applied on a CM5 chip coated with human Gal10-His. As a positive control, a 20 nM injection of the purified g7B07 clone in the human Fab backbone was included at the beginning and end of the run.
The binding capacity of the Fab periplasmic extract was analyzed by SPR technology using a Biacore 3000. Briefly, diluted periplasmic extracts were injected on CM5 chip coated with 2500 RU of Gal10-His. The amplitude of the binding (Rmax), the dissociation (off-rate) of each clone, as well as the off-rate fold change compared to the controls (g7B07 and g7B07_N53A) are indicated. Clones g20H09 and g23H09 had similar or better off rate compared to the control g7B07 (Table 10). The randomized part of the CDR2 sequence is underlined (Table 10).

The target in test [6] is T1, human Gal10-His. Put plainly: SPR slope against calibrators on captured Gal10-His; sample 2 weeks at 37 C.

B1: g23H09 (Fab) (Fab, V domains shown)
VH: EVQLLESGGGLVQPGGSLRLSCAASGFTFRSYDMSWVRQAPGKGLEWVSAIAQFQHWTYYADSVKGRFTISRDNSKNTLYLQMNSLRAEDTAVYYCATTHGIGTLGFGSWGQGTLVTVSS
VL: SYELTQPLSVSVALGQTARITCDGNNIGSKSAQWYQQKPGQAPVLVIYADEYRPEGIPERFSGSNSGNTATLTISRAQAGDEADYYCQVWDGSAAVFGGGTQLTVL
notes: same VH/VL
Take B1: the dissociation constant (Kd) (usually the constant that tells how readily two partners part at equilibrium) with human Gal10-His [1] was 5.34 nM; in test [2] it was 9.9 nM. The koff – broadly, the rate constant with which the complex falls apart – came out at 0.0031 s⁻¹ with human Gal10-His [1], 0.0095 s⁻¹ in test [2] and 0.0027 s⁻¹ with human Gal10-His [5]. Moreover, the “% relative activity by SPR” value with human Gal10-His [3] stood at 93%. Also, the figures for the “% Relative Activity (RA) on Biacore” value with human Gal10-His [4] and with human Gal10-His [6] were 98% and 78%, respectively. Besides, in the test with human Gal10-His [5], the “Fold off-rate compared to g7B07” value is 0.4 fold.
